Measured values as given in patent US20040109827A1, “Powdery preparations and proecss for producing the same” (priority 2000, published 2004).

Assay: Cascade impactor (Andersen sampler) analysis of powder formulations as a model of artificial airways and lung
Conditions: Table 9
Method: In order to investigate aerodynamic particle diameters of powders, examination was carried out using a cascade impactor as a model of artificial airways and lung. The main body comprises 8 stages and a final filter superposed on top of another in combination with a flow meter and a suction pump. The method described in “Multistage Cascade Impactor Apparatus” in USP 2000 “Physical Tests and Determinations/Aerosols” was basically employed. A specific condition is as described below.
Suitable amounts of the formulations were filled into the No. 2 capsules specified by the Japanese Pharmacopoeia and placed on the device.
These formulations were analyzed using a cascade impactor. […] These RF values are obtained by weighing the powders collected at each stage and dividing the amounts collected at stages 2 to 5 by a total amount of finely ground substances contained in the formulations.
These formulations were analyzed using a cascade impactor. […] These RF values are obtained by quantifying by HPLC the glucagon in formulations collected at each stage and dividing the amounts of glucagon at stages 2 to 5 by the total amount of glucagon contained in the encapsulated formulations. Conditions for HPLC analysis are as shown below.
These formulations were filled into the No. 2 capsules specified by the Pharmacopoeia of Japan and analyzed using the following device.

Which results are given for glucagon?
Retention in capsule (No. 2 capsule, Jet-haler, suctioning for 10 seconds): Almost all formulations remained due; RF value (glucagon by HPLC at stages 2 to 5 / total glucagon in encapsulated formulations, lactose carrier Pharmatose 325 M): 0%
